Reference: patent US20120316071A1 (published 2012)
Values belong to the binder of their own block, whether it stands above or below them.

Tests used:
[1] = target: T1, rHuman Erythropoietin R/Fc Chimera, CF (R&D Systems Cat#963-ER) (human, UniProt P19235 25-250); test: ECL multispot (MSD), antigen spotted, Fab in solution; blank spot 407
T1 construct: Bought reagent; also called EPO R; Epo R/Fc
T1 sequence (looked up): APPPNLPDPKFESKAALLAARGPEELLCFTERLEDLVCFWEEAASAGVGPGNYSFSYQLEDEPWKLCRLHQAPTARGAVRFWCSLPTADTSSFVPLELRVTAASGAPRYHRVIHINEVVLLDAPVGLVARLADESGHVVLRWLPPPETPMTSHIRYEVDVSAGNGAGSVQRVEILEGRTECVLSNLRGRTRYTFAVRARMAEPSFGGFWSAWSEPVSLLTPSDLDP

[2] = target: T2, rHuman IGF-1 sR (insulin-like growth factor-1 soluble receptor), CF (R&D Systems Cat#391-GR) (human, UniProt P08069 31-932); test: as above
T2 construct: Bought soluble receptor

[3] = target: T3, rHuman ErbB2/Fc Chimera, CF (R&D Systems Cat#1129-ER) (human, UniProt P04626 23-652); test: as above
T3 construct: Bought reagent

[4] = target: T4, rHuman HGF R/c-MET/Fc Chimera, CF (R&D Systems Cat#358-MT/CF) (human, UniProt P08581 25-932); test: as above
T4 construct: Bought reagent; also called HGF R/Fc

[5] = target: T5, Recombinant Human DLL4 (R&D Systems Cat#1506-D4/CF) (human, UniProt Q9NR61 27-524); test: as above
T5 construct: Bought recombinant protein; also called delta-like protein 4; rHuman DLL4

[6] = target: T6, rHuman EGF R/Fc Chimera, CF (R&D Systems Cat#344-ER) (human, UniProt P00533 25-645); test: as above
T6 construct: Bought reagent

[7] = target: T7, rHuman Notch-1/Fc Chimera, CF (R&D Systems Cat#3647-TK) (human, UniProt P46531 19-526); test: as above
T7 construct: Bought reagent

[8] = target: T8, rHuman P-Cadherin/Fc Chimera, CF (R&D Systems Cat#861-PC) (human, UniProt P22223 108-654); test: as above
T8 construct: Bought reagent

[9] = target: T9, rHuman CD44/Fc Chimera, CF (R&D Systems Cat#3660-CD) (human, UniProt P16070 21-220); test: as above
T9 construct: Bought reagent

[10] = target: T2, rHuman IGF-1 sR (insulin-like growth …); test: ECL multispot (MSD), antigen spotted, Fab in solution; blank spot 306
[11] = target: T3, rHuman ErbB2/Fc Chimera, CF (R&D …); test: as above
[12] = target: T4, rHuman HGF R/c-MET/Fc Chimera, CF (R&D …); test: as above
[13] = target: T5, Recombinant Human DLL4 (R&D Systems …); test: as above
[14] = target: T6, rHuman EGF R/Fc Chimera, CF (R&D …); test: as above
[15] = target: T8, rHuman P-Cadherin/Fc Chimera, CF (R&D …); test: as above
[16] = target: T1, rHuman Erythropoietin R/Fc Chimera, CF …; test: ECL multispot (MSD), antigen spotted, Fab in solution; blank spot 416
[17] = target: T2, rHuman IGF-1 sR (insulin-like growth …); test: as above
[18] = target: T3, rHuman ErbB2/Fc Chimera, CF (R&D …); test: as above
[19] = target: T4, rHuman HGF R/c-MET/Fc Chimera, CF (R&D …); test: as above
[20] = target: T5, Recombinant Human DLL4 (R&D Systems …); test: as above
[21] = target: T6, rHuman EGF R/Fc Chimera, CF (R&D …); test: as above
[22] = target: T7, rHuman Notch-1/Fc Chimera, CF (R&D …); test: as above
[23] = target: T8, rHuman P-Cadherin/Fc Chimera, CF (R&D …); test: as above
[24] = target: T9, rHuman CD44/Fc Chimera, CF (R&D Systems …); test: as above
[25] = target: T1, rHuman Erythropoietin R/Fc Chimera, CF …; test: ECL multispot (MSD), antigen spotted, Fab in solution; blank spot 262
[26] = target: T2, rHuman IGF-1 sR (insulin-like growth …); test: as above
[27] = target: T3, rHuman ErbB2/Fc Chimera, CF (R&D …); test: as above
[28] = target: T4, rHuman HGF R/c-MET/Fc Chimera, CF (R&D …); test: as above
[29] = target: T5, Recombinant Human DLL4 (R&D Systems …); test: as above
[30] = target: T6, rHuman EGF R/Fc Chimera, CF (R&D …); test: as above
[31] = target: T7, rHuman Notch-1/Fc Chimera, CF (R&D …); test: as above
[32] = target: T8, rHuman P-Cadherin/Fc Chimera, CF (R&D …); test: as above
[33] = target: T9, rHuman CD44/Fc Chimera, CF (R&D Systems …); test: as above

T4 sequence (P08581 25-932, change not shown): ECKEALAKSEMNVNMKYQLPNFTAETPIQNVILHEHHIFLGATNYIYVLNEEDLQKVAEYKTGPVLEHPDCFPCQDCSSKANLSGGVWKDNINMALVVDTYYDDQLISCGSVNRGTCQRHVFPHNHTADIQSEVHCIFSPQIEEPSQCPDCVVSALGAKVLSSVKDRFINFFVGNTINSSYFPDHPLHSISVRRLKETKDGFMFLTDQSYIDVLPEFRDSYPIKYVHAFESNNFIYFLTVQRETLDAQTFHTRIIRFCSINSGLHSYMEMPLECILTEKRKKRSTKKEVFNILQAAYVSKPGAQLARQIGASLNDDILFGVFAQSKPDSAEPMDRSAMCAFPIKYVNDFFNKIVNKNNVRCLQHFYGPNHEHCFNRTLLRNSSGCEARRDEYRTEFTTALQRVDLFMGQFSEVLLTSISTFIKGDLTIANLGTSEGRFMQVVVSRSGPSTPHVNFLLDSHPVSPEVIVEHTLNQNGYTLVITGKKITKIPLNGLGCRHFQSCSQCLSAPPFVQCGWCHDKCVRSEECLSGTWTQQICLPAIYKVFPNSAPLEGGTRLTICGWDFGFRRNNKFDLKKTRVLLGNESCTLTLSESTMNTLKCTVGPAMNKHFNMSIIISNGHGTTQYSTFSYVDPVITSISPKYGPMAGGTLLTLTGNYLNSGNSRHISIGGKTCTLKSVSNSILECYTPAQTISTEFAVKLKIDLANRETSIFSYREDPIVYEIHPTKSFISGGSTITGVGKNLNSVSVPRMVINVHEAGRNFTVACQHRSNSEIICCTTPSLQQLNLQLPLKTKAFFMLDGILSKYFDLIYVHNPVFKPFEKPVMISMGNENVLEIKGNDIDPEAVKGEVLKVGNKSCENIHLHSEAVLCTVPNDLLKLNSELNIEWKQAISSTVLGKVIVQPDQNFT

ECL signal [10]: 409
ECL signal [11]: 412
ECL signal [12]: 349
ECL signal [13]: 208000
ECL signal [14]: 386
ECL signal [15]: 466
B2: Fab VH1-46_IGHD6-6*01_IGHJ1*01 S102A/S103P/S104F/H111F (APFF) & L6_IGKJ1*01 (Fab, V domains shown)
VH: QVQLVQSGAEVKKPGASVKVSCKASGYTFTSYYMHWVRQAPGQGLEWMGIINPSGGSTSYAQKFQGRVTMTRDTSTSTVYMELSSLRSEDTAVYYCAREEYAPFSAEYFQFWGQGTLVTVSS
VL: not shown
notes: Tested as Fab made in E. coli: VH joined to CH1 from Plasmid A (His6 and Flag tags), VL joined to kappa CL from Plasmid C; Light chain unmutated (parent); also called APFF / parent; H:APFF & L:wt

ECL signal [16]: 571
ECL signal [17]: 404
ECL signal [18]: 434
ECL signal [19]: 458
ECL signal [20]: 146000
ECL signal [21]: 456
ECL signal [22]: 576
ECL signal [23]: 465
ECL signal [24]: 455
B3: Fab VH1-46_IGHD6-6*01_IGHJ1*01 S102A/S103P/S104F/H111F (APFF) & L6_IGKJ1*01 S30R (Fab, V domains shown)
VH: QVQLVQSGAEVKKPGASVKVSCKASGYTFTSYYMHWVRQAPGQGLEWMGIINPSGGSTSYAQKFQGRVTMTRDTSTSTVYMELSSLRSEDTAVYYCAREEYAPFSAEYFQFWGQGTLVTVSS
VL: EIVLTQSPATLSLSPGERATLSCRASQSVRSYLAWYQQKPGQAPRLLIYDASNRATGIPARFSGSGSGTDFTLTISSLEPEDFAVYYCQQRSNWPPWTFGQGTKVEIKR
notes: Tested as Fab made in E. coli: VH joined to CH1 from Plasmid A (His6 and Flag tags), VL joined to kappa CL from Plasmid C; also called APFF / S30R

More lines, now with the values behind:

B1: Fab VH1-46_IGHD6-6*01_IGHJ1*01 S102A/S103P/S104F/H111F (APFF) & L6_IGKJ1*01 S30T (Fab, V domains shown)
VH: QVQLVQSGAEVKKPGASVKVSCKASGYTFTSYYMHWVRQAPGQGLEWMGIINPSGGSTSYAQKFQGRVTMTRDTSTSTVYMELSSLRSEDTAVYYCAREEYAPFSAEYFQFWGQGTLVTVSS
VL: EIVLTQSPATLSLSPGERATLSCRASQSVTSYLAWYQQKPGQAPRLLIYDASNRATGIPARFSGSGSGTDFTLTISSLEPEDFAVYYCQQRSNWPPWTFGQGTKVEIKR
notes: Tested as Fab made in E. coli: VH joined to CH1 from Plasmid A (His6 and Flag tags), VL joined to kappa CL from Plasmid C; also called APFF / S30T
ECL signal [1]: 497
ECL signal [2]: 410
ECL signal [3]: 332
ECL signal [4]: 375
ECL signal [5]: 122000
ECL signal [6]: 360
ECL signal [7]: 413
ECL signal [8]: 370
ECL signal [9]: 423

B4: Fab VH1-46_IGHD6-6*01_IGHJ1*01 S102A/S103P/S104F/H111F (APFF) & L6_IGKJ1*01 S30P (Fab, V domains shown)
VH: QVQLVQSGAEVKKPGASVKVSCKASGYTFTSYYMHWVRQAPGQGLEWMGIINPSGGSTSYAQKFQGRVTMTRDTSTSTVYMELSSLRSEDTAVYYCAREEYAPFSAEYFQFWGQGTLVTVSS
VL: EIVLTQSPATLSLSPGERATLSCRASQSVPSYLAWYQQKPGQAPRLLIYDASNRATGIPARFSGSGSGTDFTLTISSLEPEDFAVYYCQQRSNWPPWTFGQGTKVEIKR
notes: Tested as Fab made in E. coli: VH joined to CH1 from Plasmid A (His6 and Flag tags), VL joined to kappa CL from Plasmid C; also called APFF / S30P
ECL signal [25]: 520
ECL signal [26]: 356
ECL signal [27]: 391
ECL signal [28]: 328
ECL signal [29]: 1140
ECL signal [30]: 394
ECL signal [31]: 544
ECL signal [32]: 348
ECL signal [33]: 334
